# In publication PMC2809091:
# Assays:
# [1] = target: F137L/E363G variant of S. pyogenes enolase (S. pyogenes) (UniProt P69949); assay: AUC; sedimentation velocity; 22.7 µM enolase in TME with varying NaClO4; octamer to monomers
# [2] = target: F137L/E363G variant of S. pyogenes enolase (S. pyogenes) (UniProt P69949); assay: AUC; sedimentation velocity, 15°C; 2.7 µM enolase incubated 18 h at 15°C in TME with NaClO4 (up to 0.4 M); octamer to monomers
# [3] = target: F137L/E363G variant of S. pyogenes enolase (S. pyogenes) (UniProt P69949); assay: AUC; sedimentation velocity; 19.4 µM enolase after incubation in 0.2 M NaClO4; octamer to monomers
# [4] = target: F137L/E363G variant of S. pyogenes enolase (S. pyogenes) (UniProt P69949); assay: AUC; sedimentation velocity; 19.4 µM enolase incubated in 0.2 M NaClO4, then dialysed 24 hours against buffer (reassociation)
# [5] = target: F137L/E363G variant of S. pyogenes enolase (S. pyogenes) (UniProt P69949); assay: AUC; sedimentation velocity, 20°C; pH 7.4, 50 mM Tris with 1 mM Mg(OAc)2 and 0.1 mM EDTA
# [6] = target: F137L/E363G variant of S. pyogenes enolase (S. pyogenes) (UniProt P69949); assay: AUC; sedimentation velocity, 20°C; pH 9.0, 50 mM Tris or glycine with 1 mM Mg(OAc)2 and 0.1 mM EDTA; octamer to monomers
substance,measurement,setting,value
F137L/E363G variant of S. pyogenes enolase (from UniProt P69949 1-435) (enzyme),NaClO4 concentration at 50% dissociation,[1],0.12 M
same,NaClO4 concentration at 50% dissociation,[2],0.06 M
same,percent octameric in 0.2 M NaClO4,[3],21%
same,percent octameric after dialysis against buffer,[4],77%
same,percent octameric,[5],88%
same,stoichiometry N,[5],8
same,percent monomeric,[6],54%
same,percent octameric,[6],39%
